Results as given in paper PMC6780499, “Characterization, Recombinant Production and Structure-Function Analysis of NvCI, A Picomolar Metallocarboxypeptidase Inhibitor from the Marine Snail Nerita versicolor” (Marine Drugs, 2019).
Like-named read-outs stand apart in the source and are kept apart here. No end group written: not given here.

T1: bCPA1 (Bos taurus, UniProt P00730)
T1 sequence (P00730 111-419): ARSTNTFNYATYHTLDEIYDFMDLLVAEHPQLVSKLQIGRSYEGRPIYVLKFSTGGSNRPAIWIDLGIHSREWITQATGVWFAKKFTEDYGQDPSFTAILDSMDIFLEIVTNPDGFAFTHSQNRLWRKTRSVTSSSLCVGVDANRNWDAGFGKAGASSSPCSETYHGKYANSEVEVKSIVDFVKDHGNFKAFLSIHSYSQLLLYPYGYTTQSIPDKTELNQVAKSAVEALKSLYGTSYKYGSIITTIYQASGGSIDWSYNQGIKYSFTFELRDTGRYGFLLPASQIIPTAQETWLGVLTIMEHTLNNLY

T2: bCPA1 (Bos taurus (Bovine), UniProt P00730)
T2 chain: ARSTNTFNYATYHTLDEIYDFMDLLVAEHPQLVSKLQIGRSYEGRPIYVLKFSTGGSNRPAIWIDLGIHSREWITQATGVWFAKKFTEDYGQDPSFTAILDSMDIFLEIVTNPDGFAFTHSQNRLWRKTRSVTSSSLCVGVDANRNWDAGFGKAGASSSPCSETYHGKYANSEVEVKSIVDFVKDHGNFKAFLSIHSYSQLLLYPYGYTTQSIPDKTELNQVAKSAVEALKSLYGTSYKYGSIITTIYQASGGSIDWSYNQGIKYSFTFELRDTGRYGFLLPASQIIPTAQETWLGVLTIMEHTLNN


What was measured:
bCPA and hCPA1 = assay: Competitive (double) titration with the tight-binding inhibitor TCI; type: biochemical; settings: competing assays with the similar tight-binding inhibitor TCI
HepG2 cells = assay: Cytotoxicity, XTT assay; type: cell-based, human; settings: 72 h incubation, 2 to 250 µg/ml, three independent experiments
Method: Cytotoxicity effect of NvCI was tested in a cell culture system using the human hepatocyte cell line HepG2 (American Type Culture Collection (ATCC)). The cells were grown in Dulbecco’s modified Eagle’s medium (DMEM) medium supplemented with 10% (v/v) heat inactivated fetal bovine serum, 2 mM glutamine (Life Technologies Inc.), in a highly humidified atmosphere of 90% air with 10% CO2 at 37 °C. Growth inhibitory effect was measured by the microculture tetrazolium [2,3-bis-(2-methoxy-4-nitro-5-sulfophenyl)-2H-tetrazolium-5-carboxanilide, XTT] assay. Following the addition of different inhibitor concentrations to quadruplicate wells, plates were incubated at 37 °C for 72 h. Aliquots of 20 µl of XTT solution were then added to each well. After 3 h, the color formed was quantitated by a spectrophotometric plate reader (PerkinElmer Victor3 V) at a wavelength of 490 nm. Cell viability was expressed as a percentage of the control level.
Cell viability of HepG2 cells after 72 h incubation with NvCI at various concentrations (2 to 250 µg/ml). Untreated cells were used as controls. Data represent the mean and standard error of the mean (SEM) of three independent experiments.

CPA1 forms = assay: Apparent binding kinetics, effect of preincubation time; type: biochemical; settings: preincubation over different periods of time, titration and equilibrium conditions
Method: (§1) The Ki values of natural and recombinant NvCI against bCPA1, hCPA1, hCPA2, rat CPA3, hCPA4, hCPB1, bTAFI, hTAFI, hCPD and hCPZ were determined by measuring the enzymatic residual activity (Vi/V0 = a) at different inhibitor concentrations and using a fixed enzyme and substrate concentrations as described above, where vi and v0 are the fraction of enzymatic activity in the presence and absence of inhibitor, respectively, in terms of initial velocities. […] Working temperature was 37 °C. The best estimates of Ki values were obtained by fitting the experimental data to the equation for tight-binding inhibitors by non-linear regression using the GraphPad Prisma 5 software (GraphPad Software, Inc., San Diego, CA, USA) at p < 0.05. The real Ki values against each of these A/B-type MCPs were calculated according to the equation described by Morrison and Copeland [19, 20].

different MCPs = assay: as above; type: biochemical; settings: preincubation over different periods of time, titration and equilibrium conditions
Method: as §1

bCPA1 [1] = biological target: T1, bCPA1; assay: Ki determination, tight-binding inhibition of metallocarboxypeptidase; type: biochemical, bovine
Method: Inhibitory activities against CPA- and CPB-type forms (bovine and human variants of CPA1, CPA2, CPA4, CPB1, and TAFI) were assayed for all extracts, subject to the experimental conditions that enzyme (E), substrate (S) and inhibitor (I) concentrations as well as the [I]/[E] ratio and preincubation time followed the requirements for tight-binding inhibitor assays. Similar approaches were followed to measure the activities of proteases of different catalytic types, like pepsin, papain, trypsin and subtilisin [45, 46, 47, 48]. All assays were performed in triplicate at 25 °C in a multiplexed manner. For 96-well assays an iEMS spectrophotometer reader/dispenser FM (Labsystems, Finland) was used with a final reaction volume of 250 μL. For cuvette assays, a Cary 400 Bio spectrophotometer (Varian Inc., Palo Alto, CA, USA) spectrophotometer was used with a final reaction volume of 1 ml. The reactions were followed at 5 s intervals for 5 min and recorded as initial velocities. In the protease inhibition assays, mixtures of activity buffer, biological sample and enzyme were preincubated at 25 °C for 10min, before substrate addition. The assay conditions were as follows: for CPA-like enzymes, 7.0nM CPA, 0.1mM AAFP substrate in 20mM Tris-HCl pH 7.5, 500mMNaCl, 1% v/v dimethyl sulfoxide (DMSO), 0.05% w/v BRIJ-35 was used. For CPB-like enzymes, CPB 3.0nM CPB, 0.1mM AAFA substrate and activity buffer of 20 mM Tris-HCl pH [50].
The Ki values of natural and recombinant NvCI against bCPA1, hCPA1, hCPA2, rat CPA3, hCPA4, hCPB1, bTAFI, hTAFI, hCPD and hCPZ were determined by measuring the enzymatic residual activity (Vi/V0 = a) at different inhibitor concentrations and using a fixed enzyme and substrate concentrations as described above, where vi and v0 are the fraction of enzymatic activity in the presence and absence of inhibitor, respectively, in terms of initial velocities. The determination of Ki values was carried out on equilibrium conditions ([E0]/Ki ≤ 10), using a previously determined preincubation time of 15 min, required to establish enzyme-inhibitor equilibrium. Working temperature was 37 °C. The best estimates of Ki values were obtained by fitting the experimental data to the equation for tight-binding inhibitors by non-linear regression using the GraphPad Prisma 5 software (GraphPad Software, Inc., San Diego, CA, USA) at p < 0.05. The real Ki values against each of these A/B-type MCPs were calculated according to the equation described by Morrison and Copeland [19, 20].

bCPA1 [2] = biological target: T2, bCPA1; assay: Ki, residual activity

inhibitory capability / maximum potential activity by competitive titration (bCPA and hCPA1) [%]	binding behaviour (CPA1 forms)	binding behaviour (different MCPs)	Ki (bCPA1 [1]; natural isoforms, apparent Ki, without correction by competing assays, read-out: derived Ki towards bCPA (apparent Ki values)) [pM]	Ki (bCPA1 [1]; tight-binding equation fit, equilibrium conditions, substrate AAFP 0.1mM, 20mM Tris-HCl pH 7.5, 500mM NaCl, preincubation 15 min, 37 °C, means (n = 3) ± SD, read-out: Ki) [pM]	Kd (bCPA1 [2]) [pM]	Molecule	cytotoxicity / cell viability (HepG2 cells)
50.4	slow binding behavior	fast binding	27 ± 2	9.6 ± 1.4	–	NvCI: 53-residue, three-disulphide proteinaceous metallocarboxypeptidase inhibitor from the marine snail Nerita versicolor; major isoform; UniProt P86912 (FHVPDDRPCINPGRCPLVPDATCTFVCKAADNDFGYECQHVWTFEGQRVGCYA; disulfide (positions not given here); also: three disulphides, pairing not given here; UniProt P86912 1-53, looked up)	None of the NvCI concentrations assayed exhibited substantial cytotoxicity
–	–	–	–	–	5.8	NvCI (protein, disulfide (positions not given here); not fully specified (bridges); ends not checked) FHVPDDRPCINPGRCPLVPDATCTFVCKAADNDFGYECQHVWTFEGQRVGCYA	–
